As a reminder, the pKd is the Kd on a negative log10 scale, so that one unit is a factor of ten. A lower pKd goes with a large Kd. In general, stoichiometry N refers to a count of units in the complex or per binding partner.

Results on four substances are retold here after paper doi:10.1101/2023.12.08.570772.

pKd: −log10 of the molar value.

In assay [1] the target is RAD6 WT (N-terminal histidine tag, purified alone) (human) (UniProt P63146). The assay is described as follows: ITC.
In assay [2] the target is RAD18/RAD6 complex (full-length, purified) (human) (UniProt Q9NS91). Briefly: mass photometry.
Sequence of RAD18/RAD6 complex (full-length, purified) (human) (Q9NS91 whole entry, chain 1 of 2): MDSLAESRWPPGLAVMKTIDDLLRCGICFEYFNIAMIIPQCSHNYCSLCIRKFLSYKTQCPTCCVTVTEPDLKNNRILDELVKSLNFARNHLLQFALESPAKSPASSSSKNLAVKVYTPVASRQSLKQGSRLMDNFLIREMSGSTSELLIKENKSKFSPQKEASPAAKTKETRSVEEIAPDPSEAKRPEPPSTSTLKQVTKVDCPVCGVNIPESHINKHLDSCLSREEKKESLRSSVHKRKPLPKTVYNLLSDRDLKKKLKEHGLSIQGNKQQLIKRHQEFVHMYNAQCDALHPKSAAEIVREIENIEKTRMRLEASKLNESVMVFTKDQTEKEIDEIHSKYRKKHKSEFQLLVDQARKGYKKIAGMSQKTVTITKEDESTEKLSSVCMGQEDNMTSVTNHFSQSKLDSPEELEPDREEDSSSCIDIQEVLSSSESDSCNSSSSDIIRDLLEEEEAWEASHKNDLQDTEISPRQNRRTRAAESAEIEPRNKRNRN
Sequence of RAD18/RAD6 complex (full-length, purified) (human) (P63146 whole entry, chain 2 of 2, further chain): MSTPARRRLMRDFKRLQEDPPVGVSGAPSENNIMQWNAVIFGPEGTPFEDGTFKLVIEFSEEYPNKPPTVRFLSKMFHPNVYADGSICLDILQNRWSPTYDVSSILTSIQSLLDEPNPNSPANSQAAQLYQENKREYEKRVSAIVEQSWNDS
The target in assay [3] is His-tagged full length (FL) wildtype (WT) RAD18 (human) (UniProt Q9NS91). Briefly: AUC.
Sequence of His-tagged full length (FL) wildtype (WT) RAD18 (human) (Q9NS91 whole entry): as the sequence (Q9NS91 whole entry, chain 1 of 2) above
Assay [4] has the same target. The assay is described as follows: mass photometry.

Sequence of RAD6 of the purified RAD18/RAD6 complex (P63146 whole entry, one chain of several): as the sequence (P63146 whole entry, chain 2 of 2, further chain) above
Sequence of His-tagged full length (FL) wildtype (WT) RAD18 (Q9NS91 whole entry): as the sequence (Q9NS91 whole entry, chain 1 of 2) above
Sequence of RAD6 WT (N-terminal histidine tag, purified alone) (human) (P63146 whole entry): as the sequence (P63146 whole entry, chain 2 of 2, further chain) above
Sequence of Full length MAGEA4 WT (N-terminal histidine tag) (P43358 whole entry): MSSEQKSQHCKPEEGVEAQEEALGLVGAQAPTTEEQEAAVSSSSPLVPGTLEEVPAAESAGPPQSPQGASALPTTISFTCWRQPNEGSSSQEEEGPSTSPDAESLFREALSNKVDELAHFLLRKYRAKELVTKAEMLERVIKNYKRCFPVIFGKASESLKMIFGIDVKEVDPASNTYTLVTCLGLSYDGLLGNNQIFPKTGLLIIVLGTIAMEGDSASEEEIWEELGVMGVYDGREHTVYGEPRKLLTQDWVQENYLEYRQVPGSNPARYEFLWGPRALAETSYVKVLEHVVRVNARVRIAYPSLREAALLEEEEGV

In the case of “RAD18 R6BD peptide (27 amino acid peptide containing amino acids 340-366 of RAD18) (from UniProt Q9NS91 340-366)”, the pKd in assay [1] was 4.60.

“Full length MAGEA4 WT (N-terminal histidine tag) (from UniProt P43358 1-317) (natural protein)”: the stoichiometry N in assay [2] is 1. Turning to “RAD6 of the purified RAD18/RAD6 complex (from UniProt P63146 1-152) (enzyme)”, the stoichiometry N (RAD6 per RAD18) in assay [3] and in assay [4] was 0.5 throughout. “His-tagged full length (FL) wildtype (WT) RAD18 (from UniProt Q9NS91 1-495) (enzyme)”: the stoichiometry N in assay [3] and in assay [4] was 2 each time.
